We go through 1 substance from patent US20100158922A1.

The target of this test is recombinant human IFNγ (human) (UniProt P01579). The test is described as follows: cell-based or functional assay.
Sequence of recombinant human IFNγ (human) (P01579 24-166 limits assumed): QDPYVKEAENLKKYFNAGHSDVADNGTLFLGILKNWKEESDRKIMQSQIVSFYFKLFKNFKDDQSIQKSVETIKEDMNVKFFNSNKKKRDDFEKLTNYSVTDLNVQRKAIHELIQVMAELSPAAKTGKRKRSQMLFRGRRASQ

Regarding “R&D Systems mouse anti-human IFNγ antibody MAB285”, the MHC II Inhibition Cell-Based Assay IC50 was determined as 400 pM.
